# Laboratory results reported in paper PMC2199204 (The Journal of Cell Biology, 2001).
# T1: endogenous RasGRP (human (endogenous in A172), UniProt O95267 1-797)
# T1 sequence (looked up): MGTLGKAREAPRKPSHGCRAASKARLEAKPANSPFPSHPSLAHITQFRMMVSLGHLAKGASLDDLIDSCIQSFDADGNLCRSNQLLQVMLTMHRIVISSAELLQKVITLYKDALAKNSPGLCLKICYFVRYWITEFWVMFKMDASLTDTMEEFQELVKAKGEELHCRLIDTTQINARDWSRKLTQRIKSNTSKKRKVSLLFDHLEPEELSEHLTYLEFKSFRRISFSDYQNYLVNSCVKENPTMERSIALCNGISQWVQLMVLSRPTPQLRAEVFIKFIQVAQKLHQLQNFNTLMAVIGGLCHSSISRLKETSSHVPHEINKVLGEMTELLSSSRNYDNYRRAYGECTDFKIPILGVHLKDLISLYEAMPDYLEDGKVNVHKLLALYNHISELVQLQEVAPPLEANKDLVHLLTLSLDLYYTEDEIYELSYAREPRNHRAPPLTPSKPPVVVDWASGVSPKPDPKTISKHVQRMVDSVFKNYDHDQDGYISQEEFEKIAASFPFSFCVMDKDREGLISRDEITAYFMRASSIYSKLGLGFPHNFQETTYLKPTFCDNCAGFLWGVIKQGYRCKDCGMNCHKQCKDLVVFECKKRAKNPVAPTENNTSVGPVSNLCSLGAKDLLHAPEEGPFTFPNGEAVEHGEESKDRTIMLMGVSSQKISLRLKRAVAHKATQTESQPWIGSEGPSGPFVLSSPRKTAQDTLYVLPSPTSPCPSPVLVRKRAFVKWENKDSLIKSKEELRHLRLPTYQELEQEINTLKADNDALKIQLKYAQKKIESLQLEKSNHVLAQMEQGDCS
# Target: T1, endogenous RasGRP
# Assay: co-IP
binder,measurement,value
endogenous DGKζ (enzyme) not shown,"fold associated DGK activity, PMA-treated over untreated cells",1.9 fold
